Assay results taken from patent US20020098189A1 (AstraZeneca / MedImmune, published 2002).

How the values were obtained:
[1] = target: T1, C-terminal truncated RSV F protein, secreted from recombinant baculovirus-infected cells (respiratory syncytial virus (strain not …, UniProt P03420 26-526)); assay: SPR (BIAcore), F protein immobilized, Fab injected
T1 construct: also called F antigen of RSV
Experimental: A typical kinetic study involved the injection of 35 ml of Mab at varying concentrations (25-300 nM) in PBS buffer containing 0.05% Tween-20 (PBS/Tween). The flow rate was maintained at 5 ml/min, giving a 7 min binding phase. Following the injection of Mab, the flow was exchanged with PBS/Tween buffer for 30 min for determining the rate of dissociation. The sensor chip was regenerated between cycles with a 2 min pulse of 10 mM HCI.
More specifically, for measurement of kassoc (or kₒₙ), F protein was directly immobilized by the EDC/NHS method (EDC=N-ethyl-N′-[3-diethylaminopropyl)-carbodiimide). Briefly, 4 μg/ml of F protein in 10 mM NaOAc, pH 4.0 was prepared and about a 30 μl injection gives about 500 RU (response units) of immobilized F protein under the above referenced conditions. The blank flow cell (VnR immobilized-CM dextran surface) was subtracted for kinetic analysis. The column could be regenerated using 100 mM HCI (with 72 seconds of contact time being required for full regeneration). […] The dissociation phase was analyzed from 230 seconds (30 seconds after start of the dissociation phase) to 900 seconds. Kinetics were analyzed by 1:1 Langmuir fitting (global fitting). Measurements were done in HBS-EP buffer (10 mM HEPES, pH 7.4, 150 mM NaCl, 3 mM EDTA, 0.005% (v/v) Surfactant P20.
For measuring k_{off (or k}dissoc) the following conditions were employed. Briefly, 4100 RU of F protein were immobilized (as above) with CM-dextran used as the blank. Here, 3000 RU of Fab was bound (with dissociated Fab high enough to offset machine fluctuation). […] The dissociation phase was 6-15 hours at a flow rate of 5 μl/min.

[2] = target: T2, F protein of respiratory syncytial virus (RSV-Long strain), on infectious virus (respiratory syncytial virus (RSV-Long …, UniProt P12568 26-574)); assay: cell-based or functional assay
[3] = target: T2, F protein of respiratory syncytial …; assay: cell-based or functional assay; remark: listed apart in the source
[4] = target: T1, C-terminal truncated RSV F protein, …; assay: SPR (BIAcore), F protein immobilized, whole antibody injected

T1 sequence (P03420 26-526): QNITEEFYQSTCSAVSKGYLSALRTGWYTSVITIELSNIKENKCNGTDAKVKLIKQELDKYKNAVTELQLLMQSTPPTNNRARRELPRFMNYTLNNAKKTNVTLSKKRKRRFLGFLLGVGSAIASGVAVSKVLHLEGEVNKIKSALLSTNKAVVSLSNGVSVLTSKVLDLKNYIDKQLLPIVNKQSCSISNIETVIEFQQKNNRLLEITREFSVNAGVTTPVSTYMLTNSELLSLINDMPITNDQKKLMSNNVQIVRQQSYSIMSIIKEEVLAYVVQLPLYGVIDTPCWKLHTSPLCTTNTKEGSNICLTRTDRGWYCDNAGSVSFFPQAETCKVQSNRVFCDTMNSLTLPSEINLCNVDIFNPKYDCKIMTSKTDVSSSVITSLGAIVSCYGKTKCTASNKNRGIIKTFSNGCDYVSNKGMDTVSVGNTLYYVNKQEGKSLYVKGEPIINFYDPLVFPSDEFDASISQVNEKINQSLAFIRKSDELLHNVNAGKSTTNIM

B1: Clone 7 (Fab) (Fab, V domains shown)
VH: QVTLRESGPALVKPTQTLTLTCTFSGFSLSTAGMSVGWIRQPPGKALEWLADIWWDDKKDYNPSLKSRLTISKDTSKNQVVLKVTNMDPADTATYYCARDMITNFYFDVWGQGTTVTVSS
VL: DIQMTQSPSTLSASVGDRVTITCSASSRVGYMHWYQQKPGKAPKLLIYDTFKLASGVPSRFSGSGSGTEFTLTISSLQPDDFATYYCFQGSGYPFTFGGGTKVEIK
B1 was tested, and the koff [1] was 0.000251 s⁻¹, the kon [1] was 370000 M⁻¹ s⁻¹ and the “EC50 (nM), RSV microneutralization” value [2] was 1.59 nM.

B2: Clone 15 (Fab) (Fab, V domains shown)
VH: QVTLRESGPALVKPTQTLTLTCTFSGFSLSTAGMSVGWIRQPPGKALEWLADIWWDGKKSYNPSLKDRLTISKDTSKNQVVLKVTNMDPADTATYYCARDMIFNFYFDVWGQGTTVTVSS
VL: DIQMTQSPSTLSASVGDRVTITCSLSSRVGYMHWYQQKPGKAPKLLIYDTMYQSSGVPSRFSGSGSGTEFTLTISSLQPDDFATYYCFQGSGYPFTFGGGTKVEIK
With B2 the “Mean IC50 µg/ml, RSV microneutralization” value [3] was 0.0264 µg/mL, the “Mean IC50 (Control) µg/ml, RSV microneutralization” value (“Mean IC50 (Control) µg/ml” below) [3] was 0.0258 µg/mL and the koff [1] was 0.00028 s⁻¹. The kon [1] was 781000 M⁻¹ s⁻¹ and the “EC50 (nM), RSV microneutralization” value [2] was 0.56 nM.

B3: Clone 11 (Fab) (Fab, V domains shown)
VH: QVTLRESGPALVKPTQTLTLTCTFSGFSLSTPGMSVGWIRQPPGKALEWLADIWWDGKKHYNPSLKDRLTISKDTSKNQVVLKVTNMDPADTATYYCARDMIFNFYFDVWGQGTTVTVSS
VL: DIQMTQSPSTLSASVGDRVTITCSPSSRVGYMHWYQQKPGKAPKLLIYDTMRLASGVPSRFSGSGSGTEFTLTISSLQPDDFATYYCFQGSGYPFTFGGGTKVEIK
In the case of B3, the “Mean IC50 µg/ml, RSV microneutralization” value [3] is reported as greater than 1 µg/mL, the “Mean IC50 (Control) µg/ml” value [3] is reported as greater than 1 µg/mL and the koff [1] is reported as 0.000717 s⁻¹. The kon [1] was 571000 M⁻¹ s⁻¹ and the “EC50 (nM), RSV microneutralization” value [2] was 20.9 nM.

B4: MEDI-493 (clone 16), IgG1 (COR)/kappa (K102) humanized MAb (antibody, V domains shown)
VH: QVTLRESGPALVKPTQTLTLTCTFSGFSLSTSGMSVGWIRQPPGKALEWLADIWWDDKKDYNPSLKSRLTISKDTSKNQVVLKVTNMDPADTATYYCARSMITNWYFDVWGAGTTVTVSS
VL: DIQMTQSPSTLSASVGDRVTITCKCQLSVGYMHWYQQKPGKAPKLLIYDTSKLASGVPSRFSGSGSGTEFTLTISSLQPDDFATYYCFQGSGYPFTFGGGTKLEIK
For B4, the “Mean IC50 µg/ml, RSV microneutralization” value [3] was 0.453 µg/mL, the “Mean IC50 (Control) µg/ml” value [3] was 0.535 µg/mL and the koff [4] was 0.000735 s⁻¹. For the same binder, the kon [4] was 204000 M⁻¹ s⁻¹ and the “EC50 (nM), RSV microneutralization” value [2] was 6.12 nM.

B5: Clone 8 (Fab) (Fab, V domains shown)
VH: QVTLRESGPALVKPTQTLTLTCTFSGFSLSTAGMSVGWIRQPPGKALEWLADIWWDDKKDYNPSLKSRLTISKDTSKNQVVLKVTNMDPADTATYYCARDMITNFYFDVWGQGTTVTVSS
VL: DIQMTQSPSTLSASVGDRVTITCSASSSVGYMHWYQQKPGKAPKLLIYDTFRLASGVPSRFSGSGSGTEFTLTISSLQPDDFATYYCFQGSGYPFTFGGGTKVEIK
In the case of B5, the koff [1] is reported as 0.000273 s⁻¹, the kon [1] is reported as 375000 M⁻¹ s⁻¹ and the “EC50 (nM), RSV microneutralization” value [2] is reported as 2.67 nM.

B6: Clone 14 (Fab) (Fab, V domains shown)
VH: QVTLRESGPALVKPTQTLTLTCTFSGFSLSTAGMSVGWIRQPPGKALEWLADIWWDDKKHYNPSLKDRLTISKDTSKNQVVLKVTNMDPADTATYYCARDMIFNWYFDVWGQGTTVTVSS
VL: DIQMTQSPSTLSASVGDRVTITCSPSSRVGYMHWYQQKPGKAPKLLIYDTYRHSSGVPSRFSGSGSGTEFTLTISSLQPDDFATYYCFQGSGYPFTFGGGTKVEIK
For B6, the “Mean IC50 µg/ml, RSV microneutralization” value [3] was 0.12 µg/mL, the “Mean IC50 (Control) µg/ml” value [3] was 0.102 µg/mL and the koff [1] was 0.00025 s⁻¹. The kon [1] was 735000 M⁻¹ s⁻¹ and the “EC50 (nM), RSV microneutralization” value [2] was 2.23 nM.

B7: Clone 13 (Fab) (Fab, V domains shown)
VH: QVTLRESGPALVKPTQTLTLTCTFSGFSLSTAGMSVGWIRQPPGKALEWLADIWWDGKKDYNPSLKDRLTISKDTSKNQVVLKVTNMDPADTATYYCARDMIFNFYFDVWGQGTTVTVSS
VL: DIQMTQSPSTLSASVGDRVTITCSASSRVGYMHWYQQKPGKAPKLLIYDTFKLSSGVPSRFSGSGSGTEFTLTISSLQPDDFATYYCFQGSGYPFTFGGGTKVEIK
For B7, the “Mean IC50 µg/ml, RSV microneutralization” value [3] was 0.0287 µg/mL, the “Mean IC50 (Control) µg/ml” value [3] was 0.031 µg/mL and the koff [1] was 0.00023 s⁻¹. The kon [1] was 743000 M⁻¹ s⁻¹ and the “EC50 (nM), RSV microneutralization” value [2] was 0.81 nM.

B8: Clone 12 (Fab) (Fab, V domains shown)
VH: QVTLRESGPALVKPTQTLTLTCTFSGFSLSTAGMSVGWIRQPPGKALEWLADIWWDGKKHYNPSLKDRLTISKDTSKNQVVLKVTNMDPADTATYYCARDMIFNFYFDVWGQGTTVTVSS
VL: DIQMTQSPSTLSASVGDRVTITCSLSSRVGYMHWYQQKPGKAPKLLIYDTFKLSSGVPSRFSGSGSGTEFTLTISSLQPDDFATYYCFQGSGYPFTFGGGTKVEIK
B8 was tested, and the “Mean IC50 µg/ml, RSV microneutralization” value [3] was 0.157 µg/mL, the “Mean IC50 (Control) µg/ml” value [3] was 0.125 µg/mL and the koff [1] was 0.000453 s⁻¹. For the same binder, the kon [1] was 790000 M⁻¹ s⁻¹ and the “EC50 (nM), RSV microneutralization” value [2] was 3.24 nM.

B9: Clone 10 (Fab) (Fab, V domains shown)
VH: QVTLRESGPALVKPTQTLTLTCTFSGFSLSTPGMSVGWIRQPPGKALEWLADIWWDGKKHYNPSLKDRLTISKDTSKNQVVLKVTNMDPADTATYYCARDMIFNFYFDVWGQGTTVTVSS
VL: DIQMTQSPSTLSASVGDRVTITCSLSSRVGYMHWYQQKPGKAPKLLIYDTRGLPSGVPSRFSGSGSGTEFTLTISSLQPDDFATYYCFQGSGYPFTFGGGTKVEIK
B9 was tested, and the “Mean IC50 µg/ml, RSV microneutralization” value [3] was 0.0464 µg/mL, the “Mean IC50 (Control) µg/ml” value [3] was 0.0351 µg/mL and the koff [1] was 0.000299 s⁻¹. The kon [1] was 527000 M⁻¹ s⁻¹ and the “EC50 (nM), RSV microneutralization” value [2] was 1.06 nM.

B10: Clone 17 (whole monoclonal antibody) (antibody, V domains shown)
VH: QVTLRESGPALVKPTQTLTLTCTFSGFSLSTAGMSVGWIRQPPGKALEWLADIWWDDKKDYNPSLKSRLTISKDTSKNQVVLKVTNMDPADTATYYCARSMITNFYFDVWGAGTTVTVSS
VL: DIQMTQSPSTLSASVGDRVTITCSASSSVGYMHWYQQKPGKAPKLLIYDTFKLASGVPSRFSGSGSGTEFTLTISSLQPDDFATYYCFQGSFYPFTFGGGTKLEIK
B10 was tested, and the koff [4] was 0.000249 s⁻¹, the kon [4] was 109000 M⁻¹ s⁻¹ and the “EC50 (nM), RSV microneutralization” value [2] was 2.7 nM.

B11: Clone 9 (Fab) (Fab, V domains shown)
VH: QVTLRESGPALVKPTQTLTLTCTFSGFSLSTPGMSVGWIRQPPGKALEWLADIWWDDKKHYNPSLKDRLTISKDTSKNQVVLKVTNMDPADTATYYCARDMIFNFYFDVWGQGTTVTVSS
VL: DIQMTQSPSTLSASVGDRVTITCSLSSRVGYMHWYQQKPGKAPKLLIYDTFYLSSGVPSRFSGSGSGTEFTLTISSLQPDDFATYYCFQGSGYPFTFGGGTKVEIK
In the case of B11, the “Mean IC50 µg/ml, RSV microneutralization” value [3] is reported as 0.0407 µg/mL, the “Mean IC50 (Control) µg/ml” value [3] is reported as 0.0326 µg/mL and the koff [1] is reported as 0.000282 s⁻¹. For the same binder, the kon [1] was 663000 M⁻¹ s⁻¹ and the “EC50 (nM), RSV microneutralization” value [2] was 0.29 nM.
